Measurements: the supplement of paper PMC9170038

System: MS2 coat protein
Test: apparent KD of MS2 coat protein; designed switch direction (-1 OFF switch, 1 ON switch): 1; higher = weaker reporter binding
Procedure, shortened: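 Designed RNA switches sharing common flanks were transcribed on Illumina chips by stalled E. coli RNA polymerase. They were titrated with SNAP-549-labelled MS2 coat protein, from 0.7 or 1.5 nM doubling to 3 µM, in Tris-HCl pH 7.5 buffer with KCl, MgCl2, BSA, DTT, tRNA and Tween-20. Titrations ran without input, with 200 uM small-molecule ligand, or with an oligonucleotide input. The apparent KD of each design is the median over its clusters, after curve-fitting of normalised cluster fluorescence.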

[1] = Eterna round: R95, input ligand: FMN 200 uM
[2] = Eterna round: R95, input ligand: microRNA oligo, concentration not stated
[3] = Eterna round: R95, input ligand: none
[4] = input ligand: microRNA oligo, concentration not stated

Sequence | apparent KD of MS2 coat protein [1] | apparent KD of MS2 coat protein [2] | apparent KD of MS2 coat protein [3] | apparent KD of MS2 coat protein (input ligand: FMN 200 uM) | apparent KD of MS2 coat protein [4] | apparent KD of MS2 coat protein (input ligand: none)
GAGGGACAUGAGGAUCACCCAUGUGGAAAAUUUAAAGGAUAUUAGUGUGGGAAAGUAGGGUAAGAAGGUUGAUUGG [JR_SS1_Sub085] (puzzle: Same State 1) | 50.2 nM | 54.2 nM | 91.3 nM | – | – | –
AAAAGACAUGAGGAUCACCCAUGUAACGGUCGUCAAGGAUAUGCAUAGGUCCAUUGACCAGCAGAAGGUGAUACCU [Xeanlarace] (puzzle: Same State 1) | 400 nM | 56.6 nM | 38.3 nM | – | – | –
UUGAAGACGGACAAGGAUAUGUCAAAGGAAACAUGAGGAUCACCCAUGUGGAGAUUGGAGAAGAAACAGAAGGUGUACGGAGAGA [JR_SS2_Sub008] (puzzle: Same State 2) | 27.5 nM | 13.6 nM | 21.4 nM | – | – | –
AGCUAUUAAUCAGGAUAUGGUCACAUGAGGAUCACCCAUGUAUAGAUGAUUAAAUGUGGUCUAAACUAGAAGGGAUUGCUAACA [SameState NG2 #56] (Eterna round: R96, puzzle: Same State NG 2) | – | – | – | 414 nM | 523 nM | 421 nM
UUAAUGAUGUUAGGAUAUACAUGAGGAAUCCUCGUAGAAGGAACAUGACAUGAGGAUCACCCAUGUAACGCUCCGUAGAGCGUA [JL SSNG1 1.17] (Eterna round: R96, puzzle: Same State NG 1) | – | – | – | – | 44.7 nM | –
GUAAAACAUGAGGAUCACCCAUGUAAUAAUAUGGGAGGAUAUGCGAAUUUAAUUAUUUAAGCAGAAGGCCUAAAUG [Mat - Same State 1 - D99] (puzzle: Same State 1) | 21.2 nM | 172 nM | 149 nM | – | – | –
AGCAUACAUGAGGAUCACCCAUGUCAACGUAGUCGAGGAUAUGGGCAGCCGUGAGGCGAACCAGAAGGCGAAUUGA [Mat - Same State 1 - Mod of JL - D3] (puzzle: Same State 1) | 23.7 nM | 34.6 nM | 38.9 nM | – | – | –
CAUUGGACAUCCAGUGAGACAUGAGGAUCACCCAUGUAGGCGCAGGAUAUGCGGGUUCGGUGCUCGCAGAAGGGUGAAGAAAAC [Veenin] (Eterna round: R96, puzzle: Same State NG 3) | – | – | – | 129 nM | 98.2 nM | 114 nM
CAGCGCUGUCGAGAGGAUAUGCGGUGAUGGACAUGAGGAUCACCCAUGUUAGCGACAGCAUCACGGCAGAAGGCUCUACCGCUGC [Soteed Omei mod 18] (puzzle: Same State 2) | 19.3 nM | 18.8 nM | 30.3 nM | – | – | –
GUGGAGGGUUGAGGAUAUUGAUUACAUAUGUUUAACAUGAGGAUCACCCAUGUGGGUUGCGGUUUCGAGAAGGUAGGUUGCUGG [salish99_SSNG2_r04_041] (Eterna round: R96, puzzle: Same State NG 2) | – | – | – | 196 nM | 79.5 nM | 132 nM
UUUACUUUCAUAGGAUAUCAUGCGAAAAUUGCGUGAGAAGGGUGCACACUGUCUUUCUCGGAGUACAUGAGGAUCACCCAUGUG [SameState NG1 #67] (Eterna round: R96, puzzle: Same State NG 1) | – | – | – | 45.6 nM | 36.8 nM | 44.3 nM
GGUAGGUUACUACCAAACAUGAGGAUCACCCAUGUAAGUGGGAAGGAUAUGGUACCUAUUUGGUACCAGAAGGUCCAAUUAAUU [Fiskers NG3ss - 3] (Eterna round: R96, puzzle: Same State NG 3) | – | – | – | 228 nM | 111 nM | 720 nM
UUGAAGAACUAAGGAUAUUGAAUACAUAUGUUUAACAUGAGGAUCACCCAUGUGGGUUGCGGUGUCGAGAAGGUAGAAUAAUAG [Mat - same State NG 2 - JL mod - D96] (Eterna round: R96, puzzle: Same State NG 2) | – | – | – | 185 nM | 148 nM | 272 nM
GCUCGAUGAGCGUCCUACAUGAGGAUCACCCAUGUUCGUGGGCAGGAUAUUUACAUGCAGAGUGUAGAGAAGGGCCCAUCGAGC [SameState NG3 #65] (Eterna round: R96, puzzle: Same State NG 3) | – | – | – | 546 nM | 482 nM | 477 nM
GCCAACUAAUGAGGAUAUGGCACCUUAUUGGUGCCAGAAGGCAUGUCAAAAGACAUGAGGAUCACCCAUGUAUUAUAGUUGGCA [Mat - Same State NG 1 - JL mod - D73] (Eterna round: R96, puzzle: Same State NG 1) | – | – | – | 25.5 nM | 62.5 nM | 304 nM
AGCUAGUACCGAGGAUAUACGUACAUGAGGAUCACCCAUGUAUACAUGGUUUAAUGAAACUACAUGUAGAAGGCGGUACUAGCA [Mat - Same State NG 2 - JL mod - D51] (Eterna round: R96, puzzle: Same State NG 2) | – | – | – | 23.2 nM | 157 nM | 348 nM
GCUAGGAAUAAAGCCAACAUGAGGAUCACCCAUGUAUGUUGGUAGGAUAUCGUAUGCAAAGCAUACGAGAAGGGCUAACCUAGC [Mat - Same State NG 3 - JL Mod - D69] (Eterna round: R96, puzzle: Same State NG 3) | – | – | – | 71.4 nM | 49.5 nM | 64.8 nM
UAGUGCAUUAGAGGAUAUUCUUACGACACGAGUAAGACAUGAGGAUCACCCAUGUCGUGACAUGGGAAGAAGGCUGAUGUGCUA [Omei SS(NG)2 Bv6] (Eterna round: R96, puzzle: Same State NG 2) | – | – | – | 12 nM | 27.1 nM | 35.8 nM
UUGCGCUGUCGAGAGGAUAUGCGGUGUUGGACAUGAGGAUCACCCAUGUUAGCGAUUGCUUUACGGUAGAAGGCUCUUCAGCUGC [salish99_ss2_r3_098] (puzzle: Same State 2) | – | 63.5 nM | – | – | – | –
GCGAGCGUACUUGCAGACAUGAGGAUCACCCAUGUAACUGGACAGGAUAUGGUACCGUUUCGGUACCAGAAGGGUUUACAUGUU [JL SSNG3 3.51] (Eterna round: R96, puzzle: Same State NG 3) | – | – | – | 20.2 nM | 27.2 nM | 47.7 nM
GUGGAGAAUUAAGGAUAUUGAAUACAUAUGUUUAACAUGAGGAUCACCCAUGUGGGUUGCGGUAUCGAGAAGGUAAAUUACUGG [salish99_SSNG2_r04_033] (Eterna round: R96, puzzle: Same State NG 2) | – | – | – | 126 nM | 74.3 nM | 110 nM
GUAAUAAUGUAAGGAUAUACAUGAGGAUUUCUCGUAGAAGGUACAAGACAUGAGGAUCACCCAUGUGUCGCUCAGAAGAGCGUA [Mat - Same State NG 1 - JL mod - D16] (Eterna round: R96, puzzle: Same State NG 1) | – | – | – | 279 nM | 158 nM | 463 nM
AGCGUCCACACAGGAUAUCACCUGCACUACAGGUGAGAAGGGUGACCGGUGCGCAAUAACGACAUGAGGAUCACCCAUGUAAAA [Enraquleer] (Eterna round: R96, puzzle: Same State NG 1) | – | – | – | 334 nM | 93.2 nM | 384 nM
GAGCCAGUCCGAGGAUAUUCAUAAUUAAAUACAUGAGGAUCACCCAUGUAGGCAAGAGAGCCUUGGGAGAAGGCGGACUGGCUC [Xeonanisa>>2] (Eterna round: R96, puzzle: Same State NG 2) | – | – | – | 12.8 nM | 25 nM | 42.9 nM
GGAGCCGGCCUAGGAUAUUUCAUAAAAAUACAUGAGGAUCACCCAUGUAGGCCAGAAGGCCUUGGGAAGAAGGAGGUCGGCUCC [Loop Effect - U29] (Eterna round: R96, puzzle: Same State NG 2) | – | – | – | 10.7 nM | 15 nM | 17.3 nM
AAAAUGAGUAUAUGAAAACAAGCUUUUUAACAUGAGGAUCACCCAUGUACUCGUCUUAUAAGCAGUCGAAAGACUGC [hsa-mir-208a sensor: 77] (Eterna round: R96, puzzle: Sensor for hsa-mir-208a) | – | – | – | 94.8 nM | 17.2 nM | 96.6 nM
CGAAAGAGGUGAGGAUAUGCAGAGGAUCACCCUGUAGAAGGCAUCAGGUGAGGAUAUGCAGAGGAUCACCCUGUAGAAGGCAUC [pwkr ssNG DX.12] (Eterna round: R96, puzzle: Same State NG 1) | – | – | – | 151 nM | 336 nM | 596 nM
CUCCGGAUUGACAUGAGGAUCACCCAUGUGCCCUCAUUAAAGUAGGAUAUACCUCGCAGUCGGGAGUAGAAGGACUUUAUGAGU [Eternabot solution 36] (Eterna round: R96, puzzle: Same State NG 3) | – | – | – | 204 nM | 91.1 nM | 213 nM
UAGUACAUGCUUUUUGUCUGUCUUAGAUCACAUGAGGAUCACCCAUGUUUGGUGAAAGUUAUUUUGUUUAUGACUAU [JR_SHM208A_Sub060] (puzzle: Sensor for hsa-mir-208a) | 257 nM | 194 nM | 430 nM | – | – | –
ACAUGACAUGAGGAUCACCCAUGUCGAUAAAAGCAAGGAUAUGGGCCCGAGUCGUUCGGACCAGAAGGUGCGUCUC [Orso] (Eterna round: R96, puzzle: Same State 1) | – | – | – | 18.3 nM | 16.3 nM | 23.8 nM
